Laboratory results published in the Human Domainome abundance scans (Beltran et al. 2025).
± gives the uncertainty stated by the source.

B1: Zinc finger MYM-type protein 6, residues 427 to 504; numbered along this chain, O95789 (parent)
chain: KLKCQHCNHLFATKPELLFYKGKMFLFCGKNCSDEYKKKNKVVAMCDYCKLQKIIKETVRFSGVDKPFCSEVCKFLSA
B2: Dynamin-binding protein, residues 242 to 304; numbered along this chain, Q6XZF7 (parent)
chain: EEPGTYGVALYRFQALEPNELDFEVGDKIRILATLEDGWLEGSLKGRTGIFPYRFVKLCPDTR

Variants of: B1
Experiment: abundance fitness (aPCA) (normalised: wild type 0, dead -1); higher = more abundant; growth selection in yeast, the domain comes from the species named
Details: Homo sapiens

| Variant | abundance fitness |
| --- | --- |
| KLKCDHCNHLFATKPELLFYKGKMFLFCGKNCSDEYKKKNKVVAMCDYCKLQKIIKETVRFSGVDKPFCSEVCKFLSA | -0.405 ± 0.071 |
| KLKCQHQNHLFATKPELLFYKGKMFLFCGKNCSDEYKKKNKVVAMCDYCKLQKIIKETVRFSGVDKPFCSEVCKFLSA | -0.887 ± 0.071 |
| KLKCQHWNHLFATKPELLFYKGKMFLFCGKNCSDEYKKKNKVVAMCDYCKLQKIIKETVRFSGVDKPFCSEVCKFLSA | -0.919 ± 0.074 |
| KLKCQHHNHLFATKPELLFYKGKMFLFCGKNCSDEYKKKNKVVAMCDYCKLQKIIKETVRFSGVDKPFCSEVCKFLSA | -0.575 ± 0.24 |
| KLKCQHFNHLFATKPELLFYKGKMFLFCGKNCSDEYKKKNKVVAMCDYCKLQKIIKETVRFSGVDKPFCSEVCKFLSA | -0.845 ± 0.25 |
| KLKCQHCNHLFATKPELLFYKGKMFLFCGKNCSDPYKKKNKVVAMCDYCKLQKIIKETVRFSGVDKPFCSEVCKFLSA | -0.331 ± 0.051 |
| KLKCQHCNHLFATKPELLFYKGKMFLFCGKNCSDGYKKKNKVVAMCDYCKLQKIIKETVRFSGVDKPFCSEVCKFLSA | -0.007 ± 0.028 |
| KLKCQHCNHLFATKPELLFYKGKMFLFCGKNCSDEYKKKNKVVAMCDYCKLQKIIKETVRFSGVRKPFCSEVCKFLSA | -0.908 ± 0.23 |
| KLKCQHCNHLFATKPELLFYKGKMFLFCGKNCSDEYKKKNKVVAMCDYCKLQKQIKETVRFSGVDKPFCSEVCKFLSA | 0.52 ± 0.08 |
| KLKCQHCNHLFATKPELLFYKGKMFLFCGKNCSDEYKKKNKVVAMCDYCKLQKNIKETVRFSGVDKPFCSEVCKFLSA | 0.189 ± 0.39 |
| KLKCQHCNHLFATKPELLFYKGKMFLFCGKNCSDEYKKKNKVVAMCDYCKLQKMIKETVRFSGVDKPFCSEVCKFLSA | 0.623 ± 0.083 |
| KLKCQHCNHLFATKPELLFYKGKMFLFCGKNCSDEYKKKNKVVAMCDYCKLQKIIKRTVRFSGVDKPFCSEVCKFLSA | -0.181 ± 0.087 |
| KLKCQHCNHLFATKPELLFYKGKMFLFCGKNCSDEYKKKNKVVAMCDYCKLQKIIKTTVRFSGVDKPFCSEVCKFLSA | 0.026 ± 0.13 |
| KLKCQHCNHLFATKPELLFYKGKMFLFCGKNCSDEYKKKNKVVAMCDYCKLQKIIKETVRFSGVDKPFCSEVCKFVSA | -0.581 ± 0.098 |
| KLKCQHCNHLFATKPELLFYKGKMFEFCGKNCSDEYKKKNKVVAMCDYCKLQKIIKETVRFSGVDKPFCSEVCKFLSA | 0.118 ± 0.038 |
| KLNCQHCNHLFATKPELLFYKGKMFLFCGKNCSDEYKKKNKVVAMCDYCKLQKIIKETVRFSGVDKPFCSEVCKFLSA | -0.011 ± 0.051 |
| KLDCQHCNHLFATKPELLFYKGKMFLFCGKNCSDEYKKKNKVVAMCDYCKLQKIIKETVRFSGVDKPFCSEVCKFLSA | -0.186 ± 0.079 |
| KLKCQHCNHLFATKPELLFYKGKMFLFCGKNCSDEYKKKNKVVAMCDACKLQKIIKETVRFSGVDKPFCSEVCKFLSA | -0.557 ± 0.11 |
| KLKCQHCNHLKATKPELLFYKGKMFLFCGKNCSDEYKKKNKVVAMCDYCKLQKIIKETVRFSGVDKPFCSEVCKFLSA | -0.13 ± 0.064 |
| KLKCQHCNHLFATKPELLFYKGKMFLFCGKNCSDEYKKKNKVVAMCDYCKLQKIIKETVRFSGVDKPFCVEVCKFLSA | -1.05 ± 0.16 |

| Variant | abundance fitness |
| --- | --- |
| KLKCQHCNHLFATKPELLFYKGKMFLFCGKNCSDEYKKKNKVVAMCDYCKLQKIIKETVRFSGVDKPFCCEVCKFLSA | -0.425 ± 0.2 |
| KLKCQHCNHLFATKPELLAYKGKMFLFCGKNCSDEYKKKNKVVAMCDYCKLQKIIKETVRFSGVDKPFCSEVCKFLSA | 0.057 ± 0.03 |
| KLKCQHCNHLFATKPELLTYKGKMFLFCGKNCSDEYKKKNKVVAMCDYCKLQKIIKETVRFSGVDKPFCSEVCKFLSA | -0.03 ± 0.037 |
| KLKCQHCNHLFATKPELLFYKGIMFLFCGKNCSDEYKKKNKVVAMCDYCKLQKIIKETVRFSGVDKPFCSEVCKFLSA | -0.129 ± 0.067 |
| KLKCQHCNHLFATKPELLFYKGKMFLFCGKNCSDEYKKKNKVVAMCDYCKLQEIIKETVRFSGVDKPFCSEVCKFLSA | -0.353 ± 0.13 |
| KLKCQHCNHLFATKPELLFYKGKMFLFCGKNSSDEYKKKNKVVAMCDYCKLQKIIKETVRFSGVDKPFCSEVCKFLSA | -1.01 ± 0.2 |
| KLKCQHCNHLFATKPELLFYKGKMFLFCGKNCSDEYKKKNKVVAMCDYCKLQKIIKETVRFSGVDKPFCSEVCKFLSS | -0.11 ± 0.14 |
| KLKCQHCNHLFATKPELLFYKGKMFLFCGKNCSDEYKKKNKVVAMCDYCKLQKIIKETVRFSGVDKPFCSEVCKFLSD | 0.891 ± 0.22 |
| KLKCQHCNHLFATKPELLFYKGKMFLFCGKNCSDEYKKKNKVVAMCDYCKLQKIIKETVRFSGVDKPFCSEVCFFLSA | -0.594 ± 0.49 |
| KLKCQHCNHLFATKPELLFYKGKMFLFCGKNCSDEYKKKNKVVAMCDYCKLQKIIKETVRFSGVDKPFCSEVCKFLQA | -0.303 ± 0.24 |
| KLKCQHCNHLFATKPELLFYKGKMFLFCGKNCSDEYKKKNKVVAMCDYCKLQKIIKETVRFSGVDKPFCSEVCKFLAA | -0.129 ± 0.097 |
| KLKCQHCNHLFATKPELLFYKGKMFLFCGKNCSDEYKKKNKVVAMCAYCKLQKIIKETVRFSGVDKPFCSEVCKFLSA | -0.033 ± 0.087 |
| KLKCQHCNHLFATKPELLFYKGKMFLFCGKNCSDEYKKKNKVVRMCDYCKLQKIIKETVRFSGVDKPFCSEVCKFLSA | -0.495 ± 0.1 |
| KLKCQHCNHLFATKPELLFYKGKMFLFCGKNCMDEYKKKNKVVAMCDYCKLQKIIKETVRFSGVDKPFCSEVCKFLSA | -0.042 ± 0.037 |
| KLKCQHCNHLFATKPELLFYKGKMFLFCGKNCSDEYKKKNKVVAMCDYCKLQKIIKETVRVSGVDKPFCSEVCKFLSA | 0.399 ± 0.079 |
| KLKCQHCNHLFAIKPELLFYKGKMFLFCGKNCSDEYKKKNKVVAMCDYCKLQKIIKETVRFSGVDKPFCSEVCKFLSA | 0.031 ± 0.075 |
| KLKCQHCNHLFATKPELLFYKGKMFLFCGKNCSDEYKKKNKVVAMCDYCKLQKIIKEGVRFSGVDKPFCSEVCKFLSA | -0.125 ± 0.084 |
| KLKCQHCNHLFATKPELLFYKGKMFLFCGKNCSDEYKKKNKVVAMCDYCKLQKIIKETVRFSGVDGPFCSEVCKFLSA | 0.144 ± 0.11 |
| KLKCQHCNHLFATKPELLFTKGKMFLFCGKNCSDEYKKKNKVVAMCDYCKLQKIIKETVRFSGVDKPFCSEVCKFLSA | 0.019 ± 0.037 |
| KLKCQHCNHLFATKPELLFGKGKMFLFCGKNCSDEYKKKNKVVAMCDYCKLQKIIKETVRFSGVDKPFCSEVCKFLSA | -0.078 ± 0.029 |

| Variant | abundance fitness |
| --- | --- |
| KLKCQHCNHLFATKPELAFYKGKMFLFCGKNCSDEYKKKNKVVAMCDYCKLQKIIKETVRFSGVDKPFCSEVCKFLSA | -0.031 ± 0.036 |
| KLKCQHCNHLFATKPELLFYKGKMFLFCGKNCSDEYKKKNKVVAMCDYCKLCKIIKETVRFSGVDKPFCSEVCKFLSA | -0.576 ± 0.23 |
| KLKCQHCNHLFATKPELLFYKGKMFLFLGKNCSDEYKKKNKVVAMCDYCKLQKIIKETVRFSGVDKPFCSEVCKFLSA | -0.859 ± 0.087 |
| KLKCQHCNHLFATKPELLFYKGKMFLFNGKNCSDEYKKKNKVVAMCDYCKLQKIIKETVRFSGVDKPFCSEVCKFLSA | -0.367 ± 0.11 |
| KLKCQHCNHLFATKPELLFYKGKMFLFCGKFCSDEYKKKNKVVAMCDYCKLQKIIKETVRFSGVDKPFCSEVCKFLSA | -0.229 ± 0.07 |
| KLKCQHCNHLFDTKPELLFYKGKMFLFCGKNCSDEYKKKNKVVAMCDYCKLQKIIKETVRFSGVDKPFCSEVCKFLSA | -0.047 ± 0.033 |
| KLKCQHCNHLFATKPELLFYKGKMFLFCGKNCSDEYKKKNKVVAMCDYCKLQKIIKETVRFSGVDKKFCSEVCKFLSA | 0.486 ± 0.17 |
| KLKCQHCNHLFATKPELLFYMGKMFLFCGKNCSDEYKKKNKVVAMCDYCKLQKIIKETVRFSGVDKPFCSEVCKFLSA | -0.031 ± 0.041 |
| KLKCQHCNHLFATKPELLFYNGKMFLFCGKNCSDEYKKKNKVVAMCDYCKLQKIIKETVRFSGVDKPFCSEVCKFLSA | -0.03 ± 0.033 |
| KLKCQHCNHLFATKPELLFYVGKMFLFCGKNCSDEYKKKNKVVAMCDYCKLQKIIKETVRFSGVDKPFCSEVCKFLSA | -0.155 ± 0.037 |
| KLKCQHCNHLFATKPELLFYKGKYFLFCGKNCSDEYKKKNKVVAMCDYCKLQKIIKETVRFSGVDKPFCSEVCKFLSA | -0.249 ± 0.093 |
| KLKCQHCNHLFATKPELLFYKGKMFLFCGKNCSDEYKKKNKVVAMCDYCKLQKILKETVRFSGVDKPFCSEVCKFLSA | -0.774 ± 0.25 |
| KLKCQHCNHLFATKPELLFYKGKMFLFCGKNCSDEYKKKNKVVAMCDYCKLQKIWKETVRFSGVDKPFCSEVCKFLSA | -0.623 ± 0.17 |
| KLKCQHCNHLFATKPELLFYKGKMFLFCGKNCSDEYKKKTKVVAMCDYCKLQKIIKETVRFSGVDKPFCSEVCKFLSA | -0.014 ± 0.18 |
| KLKCQHCNHLFATKPELLFYKGKMFLFCGKNCSDEYKKKGKVVAMCDYCKLQKIIKETVRFSGVDKPFCSEVCKFLSA | -0.086 ± 0.04 |
| KLKCQHCNHLFATKPELLFYKGKMFLFCGKNCSDEYKKKNKVVAMCDYCCLQKIIKETVRFSGVDKPFCSEVCKFLSA | -0.805 ± 0.19 |
| KLKCQHCNHLFATKPELLFYKGKMFLFCGKNCSDEYKKKNKVVAMCDYCALQKIIKETVRFSGVDKPFCSEVCKFLSA | -0.786 ± 0.16 |
| KLKCQHCNHLFATKPELLFYKGKMFLFCGKNCSDEYKKKNKVVASCDYCKLQKIIKETVRFSGVDKPFCSEVCKFLSA | -0.073 ± 0.094 |
| KLKCQHCNHLFATKPELLFYKGKMFLFCGKNCSDEYKKENKVVAMCDYCKLQKIIKETVRFSGVDKPFCSEVCKFLSA | -0.012 ± 0.057 |
| KLKCQHCNHLFATKPELLFYKGKMFLGCGKNCSDEYKKKNKVVAMCDYCKLQKIIKETVRFSGVDKPFCSEVCKFLSA | -0.545 ± 0.037 |

Variants of: B2
Experiment: as above
Details: Homo sapiens

| Variant | abundance fitness |
| --- | --- |
| EEPGTYGVALYRFQALEPNELDFEVGDKIRILATLEDGWLEGSLKGRTGIFPYRFVKLCPDTW | -0.206 ± 0.16 |
| EEPGTYGVALYRFQALEPNELDFEVGDKIRILATLEDGWLEGSLKGRTGIFPYRFVKLCPDTG | 0.119 ± 0.083 |
| EEPGTYGVALYRFQALEPNELDFEVGDKIRILATLEDGWLEGSLKGRTGIFPYRFVKLCPDTQ | -0.184 ± 0.19 |
| EEPGTYGVALYRFQALEPNELDFEVGDKIRILATLEDGWLEGSLKGRTGIFPYRFVKLCPDTS | 0.15 ± 0.055 |
| EEPGTYGVALYRFQALEPNELDFEVGDKIRILATLEDGWLEGSLKGRTGIFPYRFVKLCPDTI | -0.012 ± 0.061 |
| EEPGTYGVALYRFQALEPNELDFEVGDKIRILATLEDGWLEGSLKGRTGIFPYRFVKLCPDTT | 0.186 ± 0.056 |
| EEPGTYGVALYRFQALEPNELDFEVGDKIRILATLEDGWLEGSLKGRTGIFPYRFVKLCPDTP | 0.164 ± 0.089 |
| EEPGTYGVALYRFQALEPNELDFEVGDKIRILATLEDGWLEGSLKGRTGIFPYRFVKLCPDTN | 0.168 ± 0.064 |
| EEPGTYGVALYRFQALEPNELDFEVGDKIRILATLEDGWLEGSLKGRTGIFPYRFVKLCPDTM | 0.049 ± 0.14 |
| EEPGTYGVALYRFQALEPNELDFEVGDKIRILATLEDGWLEGSLKGRTGIFPYRFVKLCPDTV | -0.056 ± 0.079 |
| EEPGTYGVALYRFQALEPNELDFEVGDKIRILATLEDGWLEGSLKGRTGIFPYRFVKLCPDTH | 0.065 ± 0.063 |
| EEPGTYGVALYRFQALEPNELDFEVGDKIRILATLEDGWLEGSLKGRTGIFPYRFVKLCPDTL | -0.005 ± 0.083 |
